1 substance from patent US20110159013A1 can be followed below.

What is called Kd is the free concentration of one partner at which half of the binding sites on the other are occupied at equilibrium, for simple one-to-one binding.

This assay has as its target ADDL fibril preparation (Aβ1-42 fibrils made in 10 mM hydrochloric acid). Nature of the assay: solution equilibrium titration; free IgG by ELISA; GraFit. (In general: ELISA stands for enzyme-linked immunosorbent assay.)

With monoclonal antibody WO-2, the Kd worked out at 1.15 nM.
